Values quoted from earlier work, collected in paper PMC2650229.

Biological target: ERp57 b' domain (Homo sapiens) (UniProt P30101)
Sequence of UniProt P30101 (P30101 241-360): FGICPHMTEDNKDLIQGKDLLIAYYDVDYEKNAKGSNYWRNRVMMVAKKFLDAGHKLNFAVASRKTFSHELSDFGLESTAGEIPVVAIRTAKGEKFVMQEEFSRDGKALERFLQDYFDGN

Kd: 2600 nM
Substance: calreticulin P-domain (from UniProt P27797)
